Test results reported in paper doi:10.1101/2024.03.21.586141, “Delving into human α1,4-galactosyltransferase acceptor specificity: the role of enzyme dimerization” (bioRxiv, 2024).
Substitutions are numbered along the chain they refer to. Names may count otherwise.

T1: human β1,4-galactosyltransferase 1 (B4galt1) (human, UniProt P15291-2 1-385)
T1 construct: human β1,4-galactosyltransferase 1, ORF of GenBank NM_001378495.1 nucleotides 30-1187 (1158 nt: 385 codons and stop); Synthetic ORF (Thermo Fisher) recloned into pBiT1.1-N/C and pBiT2.1-N/C; also called N-Lg-B4galt1; C-Lg-B4galt1; source: HEK293T or CHO-Lec2 cells, transfected (PEI), in live cells; not shown: LgBiT or SmBiT (NanoLuc subunit), N-terminal or C-terminal, kept
T1 sequence (looked up): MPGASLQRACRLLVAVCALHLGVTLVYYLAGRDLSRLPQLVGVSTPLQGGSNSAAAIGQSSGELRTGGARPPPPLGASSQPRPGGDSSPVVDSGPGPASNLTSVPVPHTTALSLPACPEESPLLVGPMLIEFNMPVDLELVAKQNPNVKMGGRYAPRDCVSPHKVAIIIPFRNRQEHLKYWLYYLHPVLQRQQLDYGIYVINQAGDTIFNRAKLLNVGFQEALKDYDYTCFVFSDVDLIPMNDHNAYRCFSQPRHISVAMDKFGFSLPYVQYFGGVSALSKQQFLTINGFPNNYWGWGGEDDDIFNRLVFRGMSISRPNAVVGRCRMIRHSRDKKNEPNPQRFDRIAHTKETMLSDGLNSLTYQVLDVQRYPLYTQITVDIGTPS

T2: human β1,4-galactosyltransferase 5 isoenzyme (B4galt5) (human, UniProt O43286 1-388)
T2 construct: human β1,4-galactosyltransferase 5, ORF of GenBank NM_004776.4 nucleotides 189-1355 (388 codons and stop); Synthetic ORF (Thermo Fisher) recloned into pBiT1.1-N/C and pBiT2.1-N/C; also called N-Lg-B4galt5; C-Lg-B4galt5; source: HEK293T or CHO-Lec2 cells, transfected (PEI), in live cells; not shown: LgBiT or SmBiT (NanoLuc subunit), N-terminal or C-terminal, kept
T2 sequence (looked up): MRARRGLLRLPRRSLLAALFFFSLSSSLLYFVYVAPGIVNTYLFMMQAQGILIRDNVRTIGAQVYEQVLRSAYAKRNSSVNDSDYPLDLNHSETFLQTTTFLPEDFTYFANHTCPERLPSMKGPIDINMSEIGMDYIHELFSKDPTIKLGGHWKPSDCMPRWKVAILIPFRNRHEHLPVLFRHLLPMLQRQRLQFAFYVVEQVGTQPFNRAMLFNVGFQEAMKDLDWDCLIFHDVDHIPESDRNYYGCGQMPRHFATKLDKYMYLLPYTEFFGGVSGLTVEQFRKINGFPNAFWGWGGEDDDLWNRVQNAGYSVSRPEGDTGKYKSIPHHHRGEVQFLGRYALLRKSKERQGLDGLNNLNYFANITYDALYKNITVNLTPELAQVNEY

B1: human α1,4-galactosyltransferase (A4galt), high-frequency enzyme (p.Q211) (enzyme, UniProt Q9NPC4 1-353, looked up)
chain: MSKPPDLLLRLLRGAPRQRVCTLFIIGFKFTFFVSIMIYWHVVGEPKEKGQLYNLPAEIPCPTLTPPTPPSHGPTPGNIFFLETSDRTNPNFLFMCSVESAARTHPESHVLVLMKGLPGGNASLPRHLGISLLSCFPNVQMLPLDLRELFRDTPLADWYAAVQGRWEPYLLPVLSDASRIALMWKFGGIYLDTDFIVLKNLRNLTNVLGTQSRYVLNGAFLAFERRHEFMALCMRDFVDHYNGWIWGHQGPQLLTRVFKKWCSIRSLAESRACRGVTTLPPEAFYPIPWQDWKKYFEDINPEELPRLLSATYAVHVWNKKSQGTRFEATSRALLAQLHARYCPTTHEAMKMYL
notes: human α1,4-galactosyltransferase, high-frequency variant with Q at position 211; full-length A4GALT gene from pCAG-A4GALT, GenBank NM_001318038.3 nucleotides 325-1386 (353 codons and stop); Four fusions were made (LgBiT or SmBiT at the N- or C-terminus, vectors pBiT1.1-N/C and pBiT2.1-N/C); every protein stood as LgBiT and as SmBiT fusion; also called Gb3/CD77 synthase; P1/Pk synthase; source: …
B2: human α1,4-galactosyltransferase (A4galt), mutein with p.Q211E substitution (enzyme, UniProt Q9NPC4 1-353, looked up)
chain: B1 chain with Q211E
notes: human α1,4-galactosyltransferase, rare natural variant p.Q211E (c.631C>G, rs397514502); full-length A4GALT gene from pCAG-A4GALT, GenBank NM_001318038.3 nucleotides 325-1386; Four fusions were made (LgBiT or SmBiT at the N- or C-terminus); also called mutein human A4galt; rare enzyme variant; source: HEK293T or CHO-Lec2 cells, transfected (PEI), in live cells; not shown: LgBiT or SmBiT (NanoLuc …)

Key:
Settings in all cases: partners not purified
[1] = target: T1, human β1,4-galactosyltransferase 1 …; test: split reporter (BiFC, NanoBiT); NanoBiT in live HEK293T cells, co-transfected with LgBiT and SmBiT fusions (N- or C-terminal, 25 ng of each plasmid a well), Nano-Glo Live Cell Substrate in Opti-MEM; fold of luminescence over LgBiT fusion with HaloTag-SmBiT, threshold 10-fold
[2] = target: T2, human β1,4-galactosyltransferase 5 …; test: split reporter (BiFC, NanoBiT); NanoBiT in live CHO-Lec2 cells, co-transfected with LgBiT and SmBiT fusions (N- or C-terminal, 25 ng of each plasmid a well), Nano-Glo Live Cell Substrate in Opti-MEM; fold of luminescence over LgBiT fusion with HaloTag-SmBiT, threshold 10-fold
[3] = target: T1, human β1,4-galactosyltransferase 1 …; test: as above

Binder	fold of luminescence over the negative control [1]	fold of luminescence over the negative control [2]	fold of luminescence over the negative control [3]
B1	~60 times	300 times	90 times
B2	~30 times	~1000 times	360 times
